± gives the uncertainty stated by the source.

A short description of the data set: amyloid nucleation score (Sup35N fusion, yeast selection) (log enrichment); library NNK3; higher = more nucleation; inactive = no reads after selection. An outline of the steps:
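Yeast lacking psi expressed peptides of 20 random codons fused to Sup35N, received 100 μM copper sulfate for 24 hours, and were then grown for 7 days at 30°C on medium lacking adenine and uracil. Illumina sequencing of input and output plasmid inserts provided the reads. Nucleation scores are DiMSum log enrichments of output over input, centred on the mode of non-aggregating sequences. Any sequence with under 100 input reads was excluded.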
CHVLWGCCIRSQVCCSAYNV gave an amyloid nucleation score of 2.06 ± 0.073.

As for FWTGVACNTAGCCLGYESLR, the amyloid nucleation score entry is “inactive”.

In the case of KNLHNTRRLCSVLLVCWMYK, the amyloid nucleation score result was “inactive”.

Consider SFPFDLFGNIVW, for which the amyloid nucleation score entry was “inactive”.

In the case of EGNCELCRLWYNWGRVAGNK, the amyloid nucleation score came out at 0.457 ± 0.2.

RNNSNEKSFLRQSYYHCDCF showed an amyloid nucleation score of 2.73 ± 0.07.

In the case of KLCGHIIYCVV, the amyloid nucleation score entry is “inactive”.

As for YAFLLYY, the amyloid nucleation score entry is “inactive”.

FMTFPRASADRDFFSRVLHL: the amyloid nucleation score entry was “inactive”.

In the case of MSFEYSPQGSILYGPSRNIY, the amyloid nucleation score result is “inactive”.

Take FQSHLNIVIVYIRLNYTVLL: the amyloid nucleation score is -0.394 ± 0.63.

With ISCGGLNQ, the amyloid nucleation score entry was “inactive”.

Regarding QGSMLRHY, the amyloid nucleation score result was “inactive”.

For WTGMPRTGWDGPRYKALSRS, the amyloid nucleation score entry is “inactive”.

In the case of LSKNSEILIYAYVLETFSCS, the amyloid nucleation score entry was “inactive”.

Take LAIVRRCWNLRYAGYEI: the amyloid nucleation score result is “inactive”.

In the case of FLLVNLTVITRACEKLPMRP, the amyloid nucleation score was -0.277 ± 1.1.

With LIFALRFSLSVSCSCAKCFR, the amyloid nucleation score result was “inactive”.

For PKFAHSEHVVNSNLFYCVEA, the amyloid nucleation score result was “inactive”.

Consider LLHVVFNTFLYRLEPEYTSK, for which the amyloid nucleation score entry is “inactive”.

Turning to DSKVLSFSWAMFMLIM, the amyloid nucleation score entry was “inactive”.

The substance HSFREYKRVNLYYPFYKDCL showed an amyloid nucleation score of 0.467 ± 0.13.

In the case of RNKHYVGRQSVSDSRVLSIV, the amyloid nucleation score result was “inactive”.

As for PKFFEAPQLQLFDAYSSMDF, the amyloid nucleation score result is “inactive”.

On to VIRVKSSCLVLLEHKLLACG, for which the amyloid nucleation score result was “inactive”.

EYCKISD: the amyloid nucleation score result is “inactive”.

With FMYRTDRYHVRGVITWRLSM, the amyloid nucleation score entry is “inactive”.

Regarding RPYSNQGGTLITSAVLGLTK, the amyloid nucleation score entry was “inactive”.

In the case of SGNHLSWYGTIE, the amyloid nucleation score was determined as 1.26 ± 0.086.

With TVPVVREVLRLRVLRIFGVG, the amyloid nucleation score entry is “inactive”.

As for GDDSSRHFNEFLYNRFAALW, the amyloid nucleation score result was “inactive”.

With KGCPVASMAQWNSCMCYVLV, the amyloid nucleation score turned out to be 1.08 ± 0.12.

On to RSIHYSYWCIYGNIRDTVRS, for which the amyloid nucleation score entry is “inactive”.

As to LPCPACKVLNDKNSSKCENY, the amyloid nucleation score entry is “inactive”.

Consider LNLTGVISNLRVVNGQ, for which the amyloid nucleation score entry was “inactive”.

For SIDDVDFSGTAKMSSSQRCT, the amyloid nucleation score entry was “inactive”.

Turning to TVLSVGINDFPYRSAISCLR, the amyloid nucleation score entry is “inactive”.

As for FAYWWRTVTPVCSGLVRYCW, the amyloid nucleation score entry was “inactive”.

Take TIFRSNDLRQYFWMA: the amyloid nucleation score is 1.63 ± 0.071.

As to PEAVAAKRPSLQYPFASMTS, the amyloid nucleation score result was “inactive”.

As to SGEYSQRKGSCKGHNGSSRS, the amyloid nucleation score result was “inactive”.

As for ANNPLLG, the amyloid nucleation score entry was “inactive”.

On to VLVLAMITFYNLYMYYDVGR, for which the amyloid nucleation score entry was “inactive”.

Consider VTDEIFELSGKVTIDSAEL, for which the amyloid nucleation score result is “inactive”.

On to FCLLIRAVSPCLTSGRIILV, for which the amyloid nucleation score result is “inactive”.

For LEYCVNL, the amyloid nucleation score entry is “inactive”.

LWRIILWPFVTWSDMMFFQF registered an amyloid nucleation score of -0.076 ± 0.98.

In the case of NGYLACSPFS, the amyloid nucleation score result was “inactive”.

Take TLNGCR: the amyloid nucleation score entry is “inactive”.

Turning to SVFPSLFNACSDLNSVHKVV, the amyloid nucleation score entry was “inactive”.

In the case of QSSLLSTVNGVFKSDTRVRV, the amyloid nucleation score entry is “inactive”.

With FCACLERQTSLNF, the amyloid nucleation score entry is “inactive”.

In the case of NSYFLSRTLLSTSGRRTCRM, the amyloid nucleation score result was “inactive”.

Take GCSLGTHSVTLTFM: the amyloid nucleation score entry is “inactive”.

As for LLFML, the amyloid nucleation score result was “inactive”.

As for MTAGEIDRLLYVS, the amyloid nucleation score entry was “inactive”.

For PSLRLQTTDILHKNSNY, the amyloid nucleation score entry is “inactive”.

For VAVDIRALFRGRWVMNLARR, the amyloid nucleation score was -0.75 ± 1.5.

Take CVPGYGYRLNYSL: the amyloid nucleation score result was “inactive”.

Turning to LYLYI, the amyloid nucleation score entry is “inactive”.

For HNMNR, the amyloid nucleation score entry was “inactive”.

Regarding IRPWQLCMSKLSHIRRATPY, the amyloid nucleation score result was “inactive”.

Substance YNKWCLHLCLRNLSMEEGMD registered an amyloid nucleation score of 1.87 ± 0.11.

Consider LICYQDLRLLAPWVQG, for which the amyloid nucleation score entry was “inactive”.

In the case of VDEDQLRHMWVHSD, the amyloid nucleation score entry is “inactive”.

FPVARAIATMGWHIGALFLN: the amyloid nucleation score entry is “inactive”.

SRPLHFVYVIWGCPDQSDRN: the amyloid nucleation score result is “inactive”.

Regarding ASFKFGG, the amyloid nucleation score entry is “inactive”.

In the case of RIKYS, the amyloid nucleation score entry was “inactive”.

With THGNMCYEWIPKVPTIISVG, the amyloid nucleation score entry is “inactive”.

Regarding HTESTGLSTPWVHL, the amyloid nucleation score result was “inactive”.

Consider CSYRCYSLGCNMQIV, for which the amyloid nucleation score result is “inactive”.

Take YSDFAWDPRSKNKYGWHPRL: the amyloid nucleation score result is “inactive”.

Regarding RLYYRLQTKQAVWCNHPAPT, the amyloid nucleation score entry was “inactive”.

For the substance FATVYELAYYQGTYCKVRCS, the amyloid nucleation score was 0.148 ± 0.78.

With YFRYRSDVIAYISVIIGNLV, the amyloid nucleation score result was “inactive”.

On to GLTLRRWINAFHRHVGNKGQ, for which the amyloid nucleation score is 0.592 ± 0.24.

IPGAVISEYYKSYRSSTIPP: the amyloid nucleation score result is “inactive”.

As for FFCSSTPKSWMCKQTL, the amyloid nucleation score entry was “inactive”.

Consider LLNDCYIRNKGLPHDERVWG, for which the amyloid nucleation score entry is “inactive”.

Regarding NKRGNVASLLSLACKYGAEQ, the amyloid nucleation score result was “inactive”.

With ICRLRPLSWMWFAAYSCLFN, the amyloid nucleation score result is “inactive”.

On to LNLLSSSMIWSFVIGNRRVY, for which the amyloid nucleation score result is “inactive”.

On to PEASLLVPMVSSYPLHFA, for which the amyloid nucleation score entry was “inactive”.

With SCGEYWPLLSFMNCWAP, the amyloid nucleation score result is “inactive”.

The substance LKSCGMRVSKCCFIDICELC came in with an amyloid nucleation score of 0.022 ± 0.75.

SNLHMILDGWEMCALHAAMG: the amyloid nucleation score entry was “inactive”.

FSNSRDSILWHRFGRICASY returned an amyloid nucleation score of 1.58 ± 0.12.

For RYKAVRRKYPGCRLGWMRPL, the amyloid nucleation score result is “inactive”.

Regarding ERALPQGMDRWSWFRERSCH, the amyloid nucleation score entry was “inactive”.

For GGQVRDCDNVEQCSATNSEG, the amyloid nucleation score entry was “inactive”.

For the substance VVLRTSLCVMWINVRHLCDP, the amyloid nucleation score entry was “inactive”.

As for LTELSETVPVVKRWKCLDYF, the amyloid nucleation score was -0.807 ± 1.9.

As to RSYGR, the amyloid nucleation score entry is “inactive”.

Turning to WFTVHLIVCSVRRLDSFVLP, the amyloid nucleation score result was “inactive”.

In the case of SSLVSCYRIFNRSGADLGLT, the amyloid nucleation score result was “inactive”.

Regarding SWMSI, the amyloid nucleation score entry was “inactive”.

As for RNRWPLPRYICRFKGFSHVV, the amyloid nucleation score result is “inactive”.

As to RTRFFSQFSSL, the amyloid nucleation score entry is “inactive”.

As to VLIMRCLKWFASMLCFSIPK, the amyloid nucleation score entry was “inactive”.

Consider LFTYVPDFSGLTLSTICCLV, for which the amyloid nucleation score amounted to 0.458 ± 0.35.

On to DSSLYKDQYRVRSSGQFKRA, for which the amyloid nucleation score result is “inactive”.

For the substance PWGPW, the amyloid nucleation score result is “inactive”.

With YAHLWKNSEAGWSGKYSILW, the amyloid nucleation score entry is “inactive”.

Substance ILVCCISVETTHDNGPEVVG returned an amyloid nucleation score of 2.22 ± 0.061.

Turning to NDYGDGVSHLMGTGTPTSLW, the amyloid nucleation score result is “inactive”.

As for IMSVRIGSLGVMSHWSLYSY, the amyloid nucleation score entry was “inactive”.

Turning to VTFLHGCIDFAGSYSAGSSD, the amyloid nucleation score result is “inactive”.

Consider FIRGVSYDFIDRSIILFLEV, for which the amyloid nucleation score result was “inactive”.

Consider ISSNTGFCPAVMLGIPFFRI, for which the amyloid nucleation score result was “inactive”.

Regarding QSEALNNFWVGSILSYMVLG, the amyloid nucleation score result is “inactive”.

DWATFNLIKAVYLRRCSCGL: the amyloid nucleation score entry is “inactive”.

As for RGIEVMDLTLARAHKRA, the amyloid nucleation score entry was “inactive”.

Regarding DYKMVRYWNLE, the amyloid nucleation score result is “inactive”.

As to SWRHSCNTRSNDYNIDWE, the amyloid nucleation score result was “inactive”.

Turning to GLCSFR, the amyloid nucleation score entry was “inactive”.

Turning to LLTWMIG, the amyloid nucleation score worked out at 0.714 ± 0.29.

Consider CVVNGDLVASLKSLFLGWCL, for which the amyloid nucleation score entry is “inactive”.

For TDKRSGVKLNLYFITNTIFA, the amyloid nucleation score worked out at 2.17 ± 0.06.

On to WGNISGSA, for which the amyloid nucleation score entry was “inactive”.

Regarding GHRHQFSHATVNDVKSRV, the amyloid nucleation score result is “inactive”.

Turning to IPGALGNKAICTRASSRRVG, the amyloid nucleation score result is “inactive”.

Regarding SMFMLCVSADGEFFNCGTNH, the amyloid nucleation score result was “inactive”.

For AFFPHELRDMFRSNLYCCYA, the amyloid nucleation score result was “inactive”.

In the case of RLFMDLYVFTTRVFNIFQFV, the amyloid nucleation score result is “inactive”.

Take RLWHLLFLHNRYHVVFNSIL: the amyloid nucleation score result was “inactive”.

Turning to IYSVYWDGMEPSIRTGWI, the amyloid nucleation score entry is “inactive”.

Consider SQLKMSYRHYPMMMCVIVFS, for which the amyloid nucleation score entry was “inactive”.

As for TWILSMWRSCIPNL, the amyloid nucleation score result was “inactive”.

As for YAFVCSDV, the amyloid nucleation score entry was “inactive”.

For the origin of these results see the supplement of paper PMC12042874.
